Assay results as given in the supplement of paper PMC9170038.

Test system: MS2 coat protein
Assay: apparent KD of MS2 coat protein; higher = weaker reporter binding
Conditions: Eterna round: R107
In short: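 Binding of SNAP-549-labelled MS2 coat protein was measured on designed RNA switches transcribed on-chip from Illumina sequencing clusters. The protein rose in twofold steps from 0.7 or 1.5 nM to 3 µM, with 0.8–1.5 h per step early on and 10–20 min per step later, in 100 mM Tris-HCl pH 7.5, 80 mM KCl, 4 mM MgCl2, without or with constant ligand. Each design's apparent KD is the median of fits to its normalised cluster binding curves.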

[1] = input ligand: theophylline 20 uM
[2] = input ligand: theophylline 2 mM
[3] = input ligand: tryptophan 2.4 mM

Sequence | apparent KD of MS2 coat protein (input ligand: arginine 13.2 mM) | apparent KD of MS2 coat protein (input ligand: none) | apparent KD of MS2 coat protein [1] | apparent KD of MS2 coat protein [2] | apparent KD of MS2 coat protein [3]
GCUAUGGCUGGAAGGAGCGUGAAUUUCAGCGAACAUGAGGAUCACCCAUGUAAGGAUAUGGCACAGGUAGGUCGCUAGCCAUAGC [#19 Same State - Arginine B] | 13.6 nM | 14.3 nM | 21.2 nM | 15.1 nM | 13.4 nM
ACGCGCAGCAGAAGGAGCGUCUUAAUUCUACAUGAGGAUCACCCAUGUUUACAUUGGAUAUGACAGGUAGGUCGCUGGUGUGCGA [#06 Same State - Arginine B] | 15.9 nM | 18 nM | 18.1 nM | 19.6 nM | 15.6 nM
UGUAACAUGAGGAUCACCCAUGUGAGUGAUACCAGACUAGUAUUAGUCCCUUGGCAGCACGUUGGGCGAGUGUAUAGUCUAUGCG [Same State - Theophylline A (Freestyle 14)] | 89.6 nM |  | 113 nM |  | 80.3 nM
UUUACAUGAGGAUCACCCAUGUUCCAUGAUACCAGACAUGAAAAUGUCCCUUGGCAGCAUGAAUGAUUCAUAGGAUAAUUAUGGG [Medlanky] | 79.7 nM |  | 116 nM |  | 72.6 nM
CAGGUGGACUGAAGGAGCGAGUCAGGGACUUACAUGAGGAUCACCCAUGUCACGGUCGUCACUCAGGUAGGUCGCAGUUCGCCUC [Diinan] | 113 nM | 188 nM | 279 nM | 628 nM | 231 nM
CAGUCAGUCAGUCAAUGAGUGAGGCAUGAAGGAGCGUGGGAAACCACAGGUAGGUCGCAUGCGGAACAUGAGGAUCACCCAUGUU [SSArg A #4] | 31.9 nM | 27.2 nM | 26.2 nM | 26.8 nM | 27.7 nM
UUUACAUGAGGAUCACCCAUGUGCCAUGAUACCAGACAUGAAAAUGUCCCUUGGCAGCAUGAGUGAUUCAUCCGAAAGGAUGUUU [Jehnice] | 114 nM |  | 146 nM |  | 103 nM
UAUAUAUAACAUGAGGAUCACCCAUGUAAACGAGGACCGGUACGGCCGCCACUCGGCCGGCAAGGGAGAGGACGGGAAACCGUCG [ETA NP+V+V2 #26] | 12.1 nM | 12.8 nM | 23.1 nM | 23 nM | 24.4 nM
CUCGGAACAAUCGAUACCAGUUCUCAUGGAUUGCAGCAGUACAUGAGGAUCACCCAUGUAAACCCUUGGCAGCGAAGAACAAGAC [theeternabot_exclusion_MS2_Theo_B_18] | 26 nM |  | 48.2 nM |  | 33.4 nM
ACGUAAUGCAGAAGGAGCGUCUUAUGUAUACAUGAGGAUCACCCAUGUAAUAUGUGGUUGAGACAGGUAGGUCGCUGAAGUACGA [JR_SSArginiB_Sub009] | 46.9 nM | 86 nM | 94.1 nM | 78.4 nM | 58.7 nM
AAGCGCACAUGAGGAUCACCCAUGUGCGGCCGAGGACCGGUACGGCCGCCACUCGGAACUAGAAAUAGGAACGGGUAGUGCGCAA [TryptophanA Sol_1] | 10.6 nM | 11.7 nM | 13.3 nM | 13.6 nM | 10.9 nM
GUAAUUUUAAGAAGGAGCGUCGAAAAUGGGUAAACAUGAGGAUCACCCAUGUAAAGGGAACGACAGGUAGGUCGCUUAGGAUUAC [AstromonsSSArgB#23] | 113 nM | 191 nM | 235 nM | 220 nM | 198 nM
CAGUCUCUAGCGGCCGCCACUGUUCUGCUGGUGCUGCUGAACGAACAUGAGGAUCACCCAUGUCUCAGGACCGGGCUUCAGACUC [theeternabot_sameState_MS2_Trp_B_44] | 22.4 nM |  | 30.4 nM | 33.3 nM | 
ACCUGUACGAAAAGUGCAGGACACGGAUAACGAGGACCGGUACGGCCGCCACUCGGAAUAACCUGAGGAUCACCCUGGUACCGUG [TrypAS 8 #AlternativeMS2 #Zipper #StaticStem] | 25.8 nM | 18.7 nM | 24 nM | 23.2 nM | 19 nM
AACAUGAGGAUCACCCAUGUCCUCGUGAUUCGAGGACCGGUACGGCCGCCACUCGGUCCUCGCGAGGAGGAGUCAAAGACUCCAA [Omei Trp A SS A v1] | 98 nM | 144 nM | 229 nM | 204 nM | 137 nM
AAAUCAGUCUGAAGGAGCGUCACAUGAGGAUCACCCAUGUACAUGAGGAUCACCCAUGUGUGACAGGUAGGUCGCAGAGGAUACC [Exclusion Arginine B GF 4] | 125 nM | 169 nM | 168 nM | 207 nM | 213 nM
GGACAUGCAGGAAGGAGCGACACAGCAGAAACUGCAAAUCCUCCACACGAGGAUCACCCGUGUCAGGUAGGUCGCCUGCAUGUCG [ArgXB 14 #Zipper #MS2Left #StaticStem #Blueprint] | 76.7 nM | 89.5 nM | 99.1 nM | 126 nM | 80.2 nM
ACAUGAGGAUCACCCAUGUGCAGAACGGAUACCAGCGUGCUGGUACGCCCUUGGCAGCCGGACAUGAGGAUCACCCAUGUGUGGA [Exclusion Theophylline A GF28] | 32.1 nM | 42.1 nM | 55.7 nM | 164 nM | 66 nM
GCACAACAUGAGGAUCACCCAUGUCGAGAUACCAGAACAUAUAUAUUCCCUUGGCAGCUCACACCUUUAAUGUAAAAUUCUUUGG [theeternabot_sameState_MS2_Theo_A_47] | 12 nM |  | 15.9 nM |  | 13.9 nM
GUACACAUGAGGAUCACCCAUGUACUGGUACGAGGACCGGUACGGCCGCCACUCGCCGAGAUUCAUAACACAUCAGAAAGCUCAC [theeternabot_sameState_MS2_Trp_A_45] | 13.5 nM |  | 27.6 nM | 18.8 nM | 
UGAUGGUGCGGAAGGAGCGUGUAAGAACAAGAACAUGAGGAUCACCCAUGUAUUAAUUUAACACAGGUAGGUCGCCGUGUUAUUG [11.K] | 29.6 nM | 35.5 nM | 39.3 nM | 29.6 nM | 20.2 nM
AAACUGGGUGUAAAAUAAAUAAUCACUGAUACCAGACUAUUUUAUGUCCCUUGGCAGCAGAAACAUGAGGAUCACCCAUGUAAUA [JR_Nu_ExcTheophyA_Sub025] | 21.2 nM |  | 25.3 nM |  | 26.7 nM
GGCUAGUGCAUCGAUACCAGCUACAUGAGGAUCACCCAUGUAGGAAGGGUGGUACUCGAUAGCCCUUGGCAGCGAACACCUCCGG [Quoran] | 18.7 nM |  | 35.7 nM |  | 18.8 nM
AUAUAUACAUGAGGAUCACCCAUGUUAUUUCGAGGACCGGUACGGCCGCCACUCGAUAGAGUAGAAGUAAAUUUUAAUUCAUGUA [JR_SSTryptoA_Sub008] | 13.9 nM |  | 18.7 nM | 16.8 nM | 
AAACAUGAGGCGGCCGCCACUGUAUGAACAUGAGGAUCACCCAUGUAUGUACCCAUGUGUGUACACAGGACCGGGCCAUGUGGAU [Exclusion Tryptophan B 4] | 24.8 nM |  | 32.3 nM | 27.8 nM | 
GCACCAGGUACGGAUACCAGACGUUGCCAAACAGGGUGACAUGAGGAUCACCCAUGUACUGUCCCUUGGCAGCCGUACCUGGUGC [EThB NP+V+V2 #4 +-Same Structure] | 20.2 nM |  | 53 nM |  | 22.6 nM
ACAUGAGGAUCACCCAUGUGAAGCAGGGUACGAGGACCGGUACGGCCGCCACUCGAGGAUUAUGCCGAGUGAAUGGCAACGAUGU [whbob_Ex_trypto A_2s19] |  |  | 22.7 nM | 16.2 nM | 
GGGUGGUAGGCGGCCGCCACUGAUUUUUAUUUAUAGAUGACAUGAGGAUCACCCAUGUAGAUAUGCAGGACCGGGCCUGUUGUUU [aaaO] | 16.6 nM |  | 22.3 nM | 19.3 nM | 
ACGACGCAUAGUGAUACCAGUACAACAUGAGGAUCACCCAUGUCACAUAUGUUGUAAUAGUGCCCUUGGCAGCACUAUGCGUCAG [SSTheo B #3] | 94.4 nM |  | 106 nM |  | 125 nM
